Here are results for three molecules from patent publication EP4559937A1 (Universitat de Barcelona, dated 2025).

T1: Recombinant CD7 protein (ACRO biosystems, Cat No CD-H52H7), labeled with Alexa Fluor 647 (UniProt P09564 26-180, limits assumed, Alexa Fluor 647 NHS Ester label, sites not stated)
T1 construct: Bought protein; also called fluorescently labelled CD7; Alexa Fluor 647-labeled CD7
T1 sequence (looked up): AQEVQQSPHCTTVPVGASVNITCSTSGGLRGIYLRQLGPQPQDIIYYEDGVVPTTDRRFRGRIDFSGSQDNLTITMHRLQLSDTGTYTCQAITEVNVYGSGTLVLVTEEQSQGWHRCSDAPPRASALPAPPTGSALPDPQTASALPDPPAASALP

B1: 142.24 murine anti-CD7 mAb (antibody, V domains shown)
VH: QLVQSGPEVKKPGETVKISCKASGYSFTHYGVNWVKQAPGKGLKWMGWINTNTGKPTYAEDFKGRFAFSLETSARTAYLQINNLKNEDTATYFCARWSTTVVAPYFDVWGAGTTVTVSS
VL: DILLTQSPAILSVSPGERVSFSCRASQNIGTSIHWFQQRSNGSPSLLIKYASESMSGIPSRFSGSGSGTDFTLSINSVEPEDIADYYCQQSNRWPYTFGGGTKLEIK
notes: Murine monoclonal antibody, tested as hybridoma culture supernatant; also called CD7_142.24
B2: 142.9 murine anti-CD7 mAb (antibody, V domains shown)
VH: QVQLQQSGAELVRPGTSVKISCKASGYTFTNYWLGWVKQRPGHGLEWIGDFYPGSIYTNYNENFQGKATLTADTSSSTAYMQLSSLTSEDSAVYFCAREGDYYGSGHFDYWGQGTTLTVSS
VL: EILLTQSPAIIAASPGEKVTITCSARSSVSYMNWYQQKSGSSPKIWIYGISNLASGVPARFSGSGSGTSFSFTINSMEAEDVAYYYCQLRSSYSRTFGGGTKLEIK
notes: Murine monoclonal antibody, tested as hybridoma culture supernatant; also called CD7_142.9
B3: 124.1D1 murine anti-CD7 mAb (antibody, V domains shown)
VH: DVQLQESGPGLVKPSQSLSLTCTVTGYSITSDYAWNWIRQFPGNKLEWLGYISYSGSTSYNPSLKSRISITRDTSKNQFFLQLNSVTTEDTATYYCAKSQLGRWAMDYWGQGTSVTVSS
VL: DILLTQSPAILSVSPGERVSFSCRASQSIGTSIHWYQQRTNDSPRLLIKYASESISGIPSRFSGSGSGTDFTLNINSVESEDIADYYCQQSISWPLTFGPGTKLELK
notes: Murine monoclonal antibody, tested as hybridoma culture supernatant; also called CD7_124.1D1

In this test the target is T1, Recombinant CD7 protein (ACRO …). The test can be described thus: microfluidic antibody-affinity profiling (MAAP), Fluidity One-W, hybridoma supernatant with Alexa Fluor 647-labelled CD7, Bayesian inference.
For orientation: Kd means a measure of binding affinity in units of concentration. Consider B1, for which the Kd came out at 22.4 nM.

For the molecule B2, the dissociation constant (Kd) worked out at 52.4 nM. The result for B3 reads 13.6 nM.
